Data: the RNAGym collection of RNA variant scans (doi:10.1073/pnas.2313332121)

B1: TPR t1 (parent)
chain: GACCAAUCUGCCCUCAGAGCUCGAGAACAUCUUCGGAUGCAGAGGAGGCAGGCUUCGGUGGCGCGAUAGCGCCAACGUCCUCAACCUCCAAUGCAUCCCACCACAUGAUGAUGCCUGAAGAGCCUUGGUUUUUUG

Variants of: B1
Assay: polymerase ribozyme fitness, log enrichment relative to wild type (log ratio); higher = more active; in vitro selection for triplet polymerase activity
Outline: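 Genotype fitness is the logarithm of its enrichment divided by wild-type enrichment, using inverse-variance-weighted averages of replicates. That logarithm is base 2. Enrichment was measured by Illumina sequencing of input and output libraries from one triplicate in vitro selection round, with frozen incubation at −7 °C, on PCR-built, transcribed mutant libraries of each subunit of a heterodimeric triplet polymerase ribozyme, retaining genotypes with ≥10 input reads and ≥1 read per output.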

Going from G117C G120A to C115U G120A U131A, the “polymerase ribozyme fitness (log ratio)” value rises from -3.91 to -2.07.

Compared with U112A C115G, G117A U129A is lower in “polymerase ribozyme fitness (log ratio)” value: -0.927 for the first, -3.39 for the second.

Going from G117A U129C to U116A U133C, the “polymerase ribozyme fitness (log ratio)” value falls from -2.05 to -3.8.

Going from A111C U112A to G117C C123U U126A, the “polymerase ribozyme fitness (log ratio)” value falls from -1.52 to -5.9.

Compared with C114U U132A, C114A G127U is lower in “polymerase ribozyme fitness (log ratio)” value: -1.1 for the first, -3.82 for the second.

First: A111U U116C
Second: C123A
The “polymerase ribozyme fitness (log ratio)” value of the first is lower: -4.01 for the first, 0.556 for the second.

Compared with C123G, C123U is lower in “polymerase ribozyme fitness (log ratio)” value: 1.8 for the first, 1.07 for the second.

Going from G120A G135U to G113U G127C, the “polymerase ribozyme fitness (log ratio)” value falls from 0.435 to -1.61.

Going from G113U G127U to G113A U129G, the “polymerase ribozyme fitness (log ratio)” value rises from -4.46 to -1.7.

Compared with G110U U112A, G110U U112G is lower in “polymerase ribozyme fitness (log ratio)” value: -2.85 for the first, -4.22 for the second.

Compared with A118G G120C, G110U is lower in “polymerase ribozyme fitness (log ratio)” value: -0.275 for the first, -1.08 for the second.

Going from G110C to A119U C124A, the “polymerase ribozyme fitness (log ratio)” value rises from -3.75 to 1.28.

Compared with G113A U126C, C114U G117U is lower in “polymerase ribozyme fitness (log ratio)” value: -0.83 for the first, -5.77 for the second.

First: G117C C124A G127U
Second: C114A C115G G122C G127U
The “polymerase ribozyme fitness (log ratio)” value of the first is higher: -4.29 for the first, -5.32 for the second.

Going from G120A U126C to G122A U130C, the “polymerase ribozyme fitness (log ratio)” value falls from -0.356 to -0.597.

Going from G122A U130G to U116G A119G, the “polymerase ribozyme fitness (log ratio)” value rises from -1.01 to 1.79.

C124A and C124G are within 0.2 log units of each other in “polymerase ribozyme fitness (log ratio)” value: 1.78 for the first, 1.59 for the second.

Going from C124G U131G to C124G U131A, the “polymerase ribozyme fitness (log ratio)” value rises from 1.33 to 2.2.

Compared with C114A G135U, G120U U133A is higher in “polymerase ribozyme fitness (log ratio)” value: -1.88 for the first, 0.165 for the second.

First: U116A C123U
Second: G120U U129C
The “polymerase ribozyme fitness (log ratio)” value of the first is lower: -1.63 for the first, -0.774 for the second.

Compared with A111G C115U, U112C C124A G128A is higher in “polymerase ribozyme fitness (log ratio)” value: -2.28 for the first, 0.254 for the second.

Going from C115G G135U to G120A U132A, the “polymerase ribozyme fitness (log ratio)” value rises from -2.97 to 1.97.

First: C114A G117U C124U
Second: G113A C123G
The “polymerase ribozyme fitness (log ratio)” value of the first is lower: -6.08 for the first, -0.469 for the second.

Going from G120A G128U to U112G G122A, the “polymerase ribozyme fitness (log ratio)” value falls from -0.62 to -1.74.

Compared with C115G A119G, G113C U116G C124A is lower in “polymerase ribozyme fitness (log ratio)” value: 1.52 for the first, -5.98 for the second.

First: A118U C123A U130C
Second: A121G
The “polymerase ribozyme fitness (log ratio)” value of the first is lower: -0.0514 for the first, 1.88 for the second.

Going from A121U to A121C, the “polymerase ribozyme fitness (log ratio)” value falls from 2.12 to 1.74.

Compared with G113C U129A, C114G C124A G135A is higher in “polymerase ribozyme fitness (log ratio)” value: -3.5 for the first, -0.373 for the second.

Going from U112A G122U U129C to C115G G117A G135A, the “polymerase ribozyme fitness (log ratio)” value falls from 0.27 to -3.04.

Going from A119G U131A to G110U U116A, the “polymerase ribozyme fitness (log ratio)” value falls from 0.889 to -3.44.

Compared with C124A U131G, U112C G127A is lower in “polymerase ribozyme fitness (log ratio)” value: 1.63 for the first, 0.907 for the second.

First: U116C G117C
Second: A111C C115A
The “polymerase ribozyme fitness (log ratio)” value of the first is higher: -2.2 for the first, -3.19 for the second.

Compared with G117U G120A U132A, G120C G122A is higher in “polymerase ribozyme fitness (log ratio)” value: -1.33 for the first, -0.824 for the second.

First: C123U G128C
Second: C115U G120C C123A
The “polymerase ribozyme fitness (log ratio)” value of the first is lower: -0.354 for the first, 0.543 for the second.

First: A119C C123G
Second: G113A G117A
The “polymerase ribozyme fitness (log ratio)” value of the first is higher: -1.25 for the first, -4.4 for the second.

G120A U125A U126A G128A and C123A U125C are within 0.2 log units of each other in “polymerase ribozyme fitness (log ratio)” value: 0.067 for the first, 0.193 for the second.

Compared with G110C C123G, G113U G117A is lower in “polymerase ribozyme fitness (log ratio)” value: -4.09 for the first, -5.13 for the second.

Compared with G110A C114G, G120U G122U is higher in “polymerase ribozyme fitness (log ratio)” value: -6.64 for the first, 0.765 for the second.

First: G113C G135U
Second: G117A C123G
The “polymerase ribozyme fitness (log ratio)” value of the first is lower: -4.15 for the first, -1.9 for the second.

First: A119C
Second: A119G
The “polymerase ribozyme fitness (log ratio)” value of the first is lower: -4.38 for the first, 1.12 for the second.

First: A119U
Second: A119G U132A
The “polymerase ribozyme fitness (log ratio)” value of the first is lower: -0.349 for the first, 1.24 for the second.

Going from U112C G135U to G117C U125A G135C, the “polymerase ribozyme fitness (log ratio)” value falls from -0.0479 to -4.9.

Going from A121U G135U to C114G U130A, the “polymerase ribozyme fitness (log ratio)” value falls from 1.28 to -2.22.

First: G110C U130G
Second: G117C C124U
The “polymerase ribozyme fitness (log ratio)” value of the first is lower: -6.34 for the first, -3.55 for the second.

Compared with G117A U131G, C115U U125A is higher in “polymerase ribozyme fitness (log ratio)” value: -1.55 for the first, -0.551 for the second.

Going from G110C U112G to C115A U125G, the “polymerase ribozyme fitness (log ratio)” value rises from -4.99 to 0.221.

Compared with G113C U125A, G110A C115G is lower in “polymerase ribozyme fitness (log ratio)” value: -3.4 for the first, -5.71 for the second.

Going from G120C G135C to G120C G127U, the “polymerase ribozyme fitness (log ratio)” value rises from 1.48 to 2.11.

Compared with C114U A118U, C115U A118C is higher in “polymerase ribozyme fitness (log ratio)” value: -3.68 for the first, -2.16 for the second.

Going from A111C U112A C123G to A111C A119U U125A, the “polymerase ribozyme fitness (log ratio)” value falls from -0.191 to -4.12.

Going from C114U C123A to G117U A118U, the “polymerase ribozyme fitness (log ratio)” value falls from -1.94 to -2.66.

C115A A119G and G122A U129C are within 0.2 log units of each other in “polymerase ribozyme fitness (log ratio)” value: -0.948 for the first, -0.808 for the second.

Compared with U116G G120C U129A, U112C G120C is higher in “polymerase ribozyme fitness (log ratio)” value: -2.49 for the first, 0.72 for the second.

Going from U116G U125A to C114U A119C, the “polymerase ribozyme fitness (log ratio)” value falls from -2.37 to -6.28.

Compared with G120U U130G, G120U U130A is higher in “polymerase ribozyme fitness (log ratio)” value: -0.763 for the first, -0.3 for the second.

First: G117C U129G
Second: C114U U130A
The “polymerase ribozyme fitness (log ratio)” value of the first is lower: -6.14 for the first, -2.7 for the second.

Going from G113U G120C G128U to G113U C123U, the “polymerase ribozyme fitness (log ratio)” value rises from -4.07 to -3.05.

Going from G113U C123G to G120A U125A, the “polymerase ribozyme fitness (log ratio)” value rises from -1.81 to 1.26.

Compared with G117A C124U, G110U G122U is lower in “polymerase ribozyme fitness (log ratio)” value: -0.187 for the first, -2.07 for the second.

Compared with G110U G122A, C114U C124G is higher in “polymerase ribozyme fitness (log ratio)” value: -2.47 for the first, -0.85 for the second.

U116G A121G and U116G A121C are within 0.2 log units of each other in “polymerase ribozyme fitness (log ratio)” value: -0.679 for the first, -0.876 for the second.

Going from G110C U132A to A119C C124G, the “polymerase ribozyme fitness (log ratio)” value rises from -3.46 to -2.41.

First: A119C C124A
Second: U112C U125A
The “polymerase ribozyme fitness (log ratio)” value of the first is lower: -2.4 for the first, 1.63 for the second.

First: G110C U125A
Second: G122A C124G
The “polymerase ribozyme fitness (log ratio)” value of the first is lower: -5.11 for the first, 1.86 for the second.

Compared with G113A C114G, A121U C124A is higher in “polymerase ribozyme fitness (log ratio)” value: -1.96 for the first, 2.1 for the second.

First: G110C A111G
Second: G110U G117U
The “polymerase ribozyme fitness (log ratio)” value of the first is lower: -5.74 for the first, -4.2 for the second.

Going from G110U G117A to A121C U131G, the “polymerase ribozyme fitness (log ratio)” value rises from -2.69 to 1.12.

Compared with U116G U129G, A111G U116G C124A U131G is higher in “polymerase ribozyme fitness (log ratio)” value: -4.36 for the first, -1.23 for the second.

G117C U133A and G117C U133G are within 0.2 log units of each other in “polymerase ribozyme fitness (log ratio)” value: -4.07 for the first, -3.89 for the second.

Compared with U112A G113U, U112G C123G is higher in “polymerase ribozyme fitness (log ratio)” value: -0.351 for the first, 0.429 for the second.

Compared with U112G C123U, A111U G120U is lower in “polymerase ribozyme fitness (log ratio)” value: 0.561 for the first, -4.5 for the second.

First: A111U G120A
Second: G113U G122C C123A
The “polymerase ribozyme fitness (log ratio)” value of the first is lower: -3.85 for the first, -2.42 for the second.

First: A119U G135U
Second: U116G U130C
The “polymerase ribozyme fitness (log ratio)” value of the first is higher: -1.1 for the first, -2.14 for the second.

Compared with C114A C123U G128U, G117U U133C is higher in “polymerase ribozyme fitness (log ratio)” value: -4.41 for the first, -2.23 for the second.

G110A C124A and G110A C124U are within 0.2 log units of each other in “polymerase ribozyme fitness (log ratio)” value: -0.401 for the first, -0.567 for the second.

First: G120A U129A
Second: U112A U126C
The “polymerase ribozyme fitness (log ratio)” value of the first is lower: -0.0881 for the first, 0.739 for the second.

First: U112A U126G
Second: C123U U126A G135U
The “polymerase ribozyme fitness (log ratio)” value of the first is lower: 0.0604 for the first, 0.771 for the second.

Compared with G120A A121C, G110C G122C is lower in “polymerase ribozyme fitness (log ratio)” value: -0.98 for the first, -5.25 for the second.

First: U116G U126C
Second: G117U A121C
The “polymerase ribozyme fitness (log ratio)” value of the first is lower: -3.51 for the first, -2.4 for the second.

Compared with U116G G120U, U116G G120C is higher in “polymerase ribozyme fitness (log ratio)” value: -2.52 for the first, -0.715 for the second.

First: G110A U129C
Second: G120A G127A U129C
The “polymerase ribozyme fitness (log ratio)” value of the first is lower: -1.47 for the first, -1.04 for the second.

Going from C123U U125G to G120C U130G, the “polymerase ribozyme fitness (log ratio)” value falls from 1.08 to 0.395.

First: A119U G120U
Second: A119U G120C
The “polymerase ribozyme fitness (log ratio)” value of the first is lower: -0.548 for the first, 1.55 for the second.

For G117U U126G, the “polymerase ribozyme fitness (log ratio)” value was -5.92.
